One block for each binder: values may come before it.
B1: full-length GST-SNX5 wild-type (natural protein, human, UniProt Q9Y5X3 1-404, looked up)
chain: MAAVPELLQQQEEDRSKLRSVSVDLNVDPSLQIDIPDALSERDKVKFTVHTKTTLPTFQSPEFSVTRQHEDFVWLHDTLIETTDYAGLIIPPAPTKPDFDGPREKMQKLGEGEGSMTKEEFAKMKQELEAEYLAVFKKTVSSHEVFLQRLSSHPVLSKDRNFHVFLEYDQDLSVRRKNTKEMFGGFFKSVVKSADEVLFTGVKEVDDFFEQEKNFLINYYNRIKDSCVKADKMTRSHKNVADDYIHTAACLHSLALEEPTVIKKYLLKVAELFEKLRKVEGRVSSDEDLKLTELLRYYMLNIEAAKDLLYRRTKALIDYENSNKALDKARLKSKDVKLAEAHQQECCQKFEQLSESAKEELINFKRKRVAAFRKNLIEMSELEIKHARNNVSLLQSCIDLFKNN
notes: sorting nexin 5, human, full-length, residues 1-404, amplified from human cDNA of the GM25256 cell line, in pGEX3; also called GST-SNX5 WT; WT; source: E. coli Rosetta 2 pLysS, purified (GSTrap, size exclusion); not shown: GST, N-terminal, kept
B3: His-SUMO-tagged CHC22 terminal domain, wild-type (domain or fragment, human, UniProt P53675 1-364, looked up)
chain: MAQILPVRFQEHFQLQNLGINPANIGFSTLTMESDKFICIREKVGEQAQVTIIDMSDPMAPIRRPISAESAIMNPASKVIALKAGKTLQIFNIEMKSKMKAHTMAEEVIFWKWVSVNTVALVTETAVYHWSMEGDSQPMKMFDRHTSLVGCQVIHYRTDEYQKWLLLVGISAQQNRVVGAMQLYSVDRKVSQPIEGHAAAFAEFKMEGNAKPATLFCFAVRNPTGGKLHIIEVGQPAAGNQPFVKKAVDVFFPPEAQNDFPVAMQIGAKHGVIYLITKYGYLHLYDLESGVCICMNRISADTIFVTAPHKPTSGIIGVNKKGQVLSVCVEEDNIVNYATNVLQNPDLGLRLAVRSNLAGAEKLF
notes: CHC22 clathrin heavy chain, N-terminal domain (TD), residues 1-364; also called CHC22 TD; His-bdSUMO-CHC22 TD; source: E. coli Rosetta 2 pLysS, purified (HisTrap, size exclusion); not shown: His, N-terminal, kept; bdSUMO, N-terminal, kept

Legend:
Settings in all cases: both partners purified
[1] = biological target: T1, His-tagged CHC22 Hub (human, UniProt P53675 1074-1640); assay: pull-down; His-tagged bait on Ni-NTA HisPur beads, 15 µg purified GST-only or GST-SNX5 as prey in 250 µL His PD buffer for 45 min, immunoblot
T1 construct: CHC22 clathrin heavy chain, Hub domain (C-terminal third), residues 1074-1640; also called His-CHC22-Hub; not shown: 6xHis, N-terminal, kept
T1 sequence (looked up): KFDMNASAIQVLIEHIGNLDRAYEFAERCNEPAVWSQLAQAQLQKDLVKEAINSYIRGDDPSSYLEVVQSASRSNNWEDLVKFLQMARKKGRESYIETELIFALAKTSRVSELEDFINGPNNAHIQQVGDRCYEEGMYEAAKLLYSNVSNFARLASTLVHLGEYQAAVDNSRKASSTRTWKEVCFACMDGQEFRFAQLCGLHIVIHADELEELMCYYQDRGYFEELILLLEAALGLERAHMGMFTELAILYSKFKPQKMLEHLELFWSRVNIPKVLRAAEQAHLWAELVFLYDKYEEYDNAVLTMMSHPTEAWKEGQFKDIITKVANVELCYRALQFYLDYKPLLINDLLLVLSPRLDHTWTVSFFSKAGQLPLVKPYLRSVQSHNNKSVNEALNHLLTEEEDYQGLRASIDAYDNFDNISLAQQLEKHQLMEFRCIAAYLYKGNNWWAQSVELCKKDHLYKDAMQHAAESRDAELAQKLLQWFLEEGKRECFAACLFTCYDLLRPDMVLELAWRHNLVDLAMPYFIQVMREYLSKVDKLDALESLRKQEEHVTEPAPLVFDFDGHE

[2] = biological target: T2, full-length His-p115 (UniProt O60763 1-962); assay: as above
T2 construct: p115, full-length, encoded by plasmid pIY119 (gift, Munro lab); not shown: 6xHis, N-terminal, kept
T2 sequence (looked up): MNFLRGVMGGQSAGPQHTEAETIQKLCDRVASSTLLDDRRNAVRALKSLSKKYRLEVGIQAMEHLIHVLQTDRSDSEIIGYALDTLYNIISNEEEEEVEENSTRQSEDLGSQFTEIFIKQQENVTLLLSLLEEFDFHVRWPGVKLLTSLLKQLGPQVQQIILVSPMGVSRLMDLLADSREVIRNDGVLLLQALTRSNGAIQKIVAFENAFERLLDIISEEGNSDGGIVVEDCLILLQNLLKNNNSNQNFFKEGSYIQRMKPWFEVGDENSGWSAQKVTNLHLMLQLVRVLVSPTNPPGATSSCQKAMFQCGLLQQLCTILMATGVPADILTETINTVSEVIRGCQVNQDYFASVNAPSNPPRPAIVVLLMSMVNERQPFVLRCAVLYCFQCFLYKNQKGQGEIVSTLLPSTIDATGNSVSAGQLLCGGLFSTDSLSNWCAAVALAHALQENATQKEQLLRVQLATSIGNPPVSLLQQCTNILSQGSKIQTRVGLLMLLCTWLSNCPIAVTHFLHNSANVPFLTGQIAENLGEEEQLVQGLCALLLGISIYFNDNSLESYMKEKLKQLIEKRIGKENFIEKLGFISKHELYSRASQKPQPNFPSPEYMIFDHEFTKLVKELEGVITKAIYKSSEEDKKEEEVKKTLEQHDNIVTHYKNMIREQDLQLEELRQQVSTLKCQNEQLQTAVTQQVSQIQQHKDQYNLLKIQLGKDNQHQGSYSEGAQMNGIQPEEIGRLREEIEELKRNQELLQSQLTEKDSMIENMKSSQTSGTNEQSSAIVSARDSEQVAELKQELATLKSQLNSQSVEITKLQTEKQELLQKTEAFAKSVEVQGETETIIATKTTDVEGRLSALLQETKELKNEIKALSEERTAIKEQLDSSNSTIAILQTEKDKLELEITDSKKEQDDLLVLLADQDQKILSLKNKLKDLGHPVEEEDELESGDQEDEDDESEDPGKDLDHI

[3] = biological target: T3, full-length His-SNX1 (UniProt Q13596 1-522)
T3 construct: SNX1, full-length, residues 1-522, sub-cloned from a plasmid of the Cullen lab into pET15b; also called recombinant SNX1; source: E. coli BL21 (DE3), purified (HisTrap, size exclusion); not shown: 6xHis, N-terminal, kept
T3 sequence (Q13596 whole entry, the tested form may be a part): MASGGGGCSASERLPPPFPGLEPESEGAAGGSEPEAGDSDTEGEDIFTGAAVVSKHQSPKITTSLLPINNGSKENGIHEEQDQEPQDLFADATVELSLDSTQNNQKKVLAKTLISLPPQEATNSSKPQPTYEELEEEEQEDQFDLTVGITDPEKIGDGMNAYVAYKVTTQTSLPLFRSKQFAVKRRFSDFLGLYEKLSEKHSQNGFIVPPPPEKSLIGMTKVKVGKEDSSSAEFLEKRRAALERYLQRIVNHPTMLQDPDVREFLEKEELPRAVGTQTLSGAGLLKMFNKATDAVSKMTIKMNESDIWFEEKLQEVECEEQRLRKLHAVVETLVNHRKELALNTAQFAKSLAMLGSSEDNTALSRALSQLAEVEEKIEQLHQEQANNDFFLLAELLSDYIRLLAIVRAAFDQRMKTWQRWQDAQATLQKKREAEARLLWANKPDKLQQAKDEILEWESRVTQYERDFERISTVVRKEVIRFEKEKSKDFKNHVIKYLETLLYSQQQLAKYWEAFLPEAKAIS

[4] = biological target: B3; assay: pull-down; GST, GST-GGA2-HE or GST-p115 on glutathione beads, 12.5 µg purified His-bdSUMO-CHC22 TD (WT or Chim) in 250 µl CHC22 PD buffer for 45 min, immunoblot
[5] = biological target: T4, His-SUMO-tagged CHC17 terminal domain (human, UniProt Q00610 1-364); assay: pull-down; GST, GST-GGA2-HE or GST-p115 on glutathione beads, 12.5 µg purified His-bdSUMO-CHC17 TD in 250 µl CHC17 PD buffer for 60 min, immunoblot
T4 construct: CHC17 clathrin heavy chain, N-terminal domain (TD), residues 1-364; also called CHC17 TD; His-bdSUMO-CHC17 TD; source: E. coli Rosetta 2 pLysS, purified (HisTrap, size exclusion); not shown: His, N-terminal, kept; bdSUMO, N-terminal, kept
T4 sequence (looked up): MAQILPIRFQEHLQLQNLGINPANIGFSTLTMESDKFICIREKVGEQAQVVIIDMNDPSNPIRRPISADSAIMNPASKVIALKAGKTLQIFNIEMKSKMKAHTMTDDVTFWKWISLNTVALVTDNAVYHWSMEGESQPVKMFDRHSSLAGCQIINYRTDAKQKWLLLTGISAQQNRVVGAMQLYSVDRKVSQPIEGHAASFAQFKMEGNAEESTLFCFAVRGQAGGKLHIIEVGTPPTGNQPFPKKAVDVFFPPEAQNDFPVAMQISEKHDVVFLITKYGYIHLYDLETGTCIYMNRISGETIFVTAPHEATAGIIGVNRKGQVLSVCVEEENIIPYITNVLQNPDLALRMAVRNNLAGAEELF

[6] = biological target: T5, full-length GST-p115 (UniProt O60763 1-962); assay: pull-down; GST, GST-GGA2-HE or GST-p115 on glutathione beads, 12.5 µg purified His-bdSUMO-CHC22 TD (WT or Chim) in 250 µl CHC22 PD buffer for 45 min, immunoblot
T5 construct: p115, full-length, residues 1-962, amplified from pIY119 into pGEX3; not shown: GST, N-terminal, kept
T5 sequence (looked up): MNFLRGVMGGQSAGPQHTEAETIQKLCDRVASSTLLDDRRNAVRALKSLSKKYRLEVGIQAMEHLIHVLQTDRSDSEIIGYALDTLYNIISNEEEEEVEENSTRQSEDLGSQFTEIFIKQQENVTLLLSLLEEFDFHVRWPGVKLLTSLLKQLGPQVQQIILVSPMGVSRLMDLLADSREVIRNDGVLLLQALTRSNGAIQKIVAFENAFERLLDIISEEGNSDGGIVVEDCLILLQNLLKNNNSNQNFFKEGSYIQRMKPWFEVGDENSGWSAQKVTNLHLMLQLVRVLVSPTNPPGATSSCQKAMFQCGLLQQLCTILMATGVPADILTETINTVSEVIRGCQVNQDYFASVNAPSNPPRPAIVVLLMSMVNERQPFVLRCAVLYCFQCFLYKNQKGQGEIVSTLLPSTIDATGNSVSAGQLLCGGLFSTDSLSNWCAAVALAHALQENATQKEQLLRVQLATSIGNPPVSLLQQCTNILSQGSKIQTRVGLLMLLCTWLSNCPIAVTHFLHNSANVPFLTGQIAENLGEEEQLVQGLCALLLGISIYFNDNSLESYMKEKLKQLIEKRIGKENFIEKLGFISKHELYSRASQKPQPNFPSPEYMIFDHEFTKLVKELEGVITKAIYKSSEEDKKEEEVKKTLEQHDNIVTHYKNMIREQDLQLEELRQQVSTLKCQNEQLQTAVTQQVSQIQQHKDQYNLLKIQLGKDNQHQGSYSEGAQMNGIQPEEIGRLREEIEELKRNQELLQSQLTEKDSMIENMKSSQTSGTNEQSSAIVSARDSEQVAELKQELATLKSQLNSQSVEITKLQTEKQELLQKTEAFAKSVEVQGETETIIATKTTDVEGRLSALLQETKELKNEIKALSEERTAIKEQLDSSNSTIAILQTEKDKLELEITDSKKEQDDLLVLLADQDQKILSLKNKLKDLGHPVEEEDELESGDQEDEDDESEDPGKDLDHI

[7] = biological target: B1
[8] = biological target: T6, full-length GST-SNX5 phosphomimetic S226E mutant (human, UniProt Q9Y5X3 1-404, S226E)
T6 construct: sorting nexin 5, human, full-length (1-404) with phosphomimetic point mutation S226E in the BAR domain; The making of the mutant is not described; also called GST-SNX5 S226E; not shown: GST, N-terminal, kept
T6 sequence (looked up): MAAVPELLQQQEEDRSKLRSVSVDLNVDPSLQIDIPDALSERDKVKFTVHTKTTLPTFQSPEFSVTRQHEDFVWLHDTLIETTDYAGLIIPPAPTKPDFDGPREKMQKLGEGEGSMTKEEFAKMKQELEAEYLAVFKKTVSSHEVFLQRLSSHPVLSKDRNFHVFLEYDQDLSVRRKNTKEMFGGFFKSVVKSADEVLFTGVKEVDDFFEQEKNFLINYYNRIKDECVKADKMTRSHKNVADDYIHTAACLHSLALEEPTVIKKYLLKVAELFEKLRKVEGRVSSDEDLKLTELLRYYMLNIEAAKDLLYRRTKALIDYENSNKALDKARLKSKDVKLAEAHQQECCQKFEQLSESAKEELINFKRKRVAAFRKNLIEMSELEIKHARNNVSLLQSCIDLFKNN

Binder: B1
- binding result [1]: binds
- binding result [2]: binds
- binding result [3]: binds

- binding result [4]: binds
- binding result [5]: binds
B2: GST-GGA2-HE (domain or fragment, UniProt Q9UJY4 316-613, looked up)
chain: GRVTFGNRVTSSLGDIPVSRVFQNPAGCMKTCPLIDLEVDNGPAQMGTVVPSLLHQDLAALGISDAPVTGMVSGQNCCEEKRNPSSSTLPGGGVQNPSADRNLLDLLSAQPAPCPLNYVSQKSVPKEVPPGTKSSPGWSWEAGPLAPSPSSQNTPLAQVFVPLESVKPSSLPPLIVYDRNGFRILLHFSQTGAPGHPEVQVLLLTMMSTAPQPVWDIMFQVAVPKSMRVKLQPASSSKLPAFSPLMPPAVISQMLLLDNPHKEPIRLRYKLTFNQGGQPFSEVGEVKDFPDLAVLGAA
notes: GGA2, hinge-GAE (hinge-ear) fragment, residues 316-613; also called GGA2-hinge-GAE; hinge-ear fragment of GGA2; not shown: GST, N-terminal, kept

Binder: B3
- binding result [6]: binds

- binding result [7]: binds
- binding result [8]: binds
B4: His-tagged CHC22 TxD (domain or fragment, human, UniProt P53675 1521-1640, looked up)
chain: WAQSVELCKKDHLYKDAMQHAAESRDAELAQKLLQWFLEEGKRECFAACLFTCYDLLRPDMVLELAWRHNLVDLAMPYFIQVMREYLSKVDKLDALESLRKQEEHVTEPAPLVFDFDGHE
notes: CHC22 clathrin heavy chain, trimerization domain; methods give residues 1521-1640, the results 1520-1640; Limits told in two ways (1521-1640 in methods, 1520-1640 in results); also called His-22TxD; His-CHC22 TxD; source: E. coli BL21 (DE3), purified (HisTrap, size exclusion); not shown: 6xHis, N-terminal, kept

Reference: PMC11445476, “CHC22 clathrin recruitment to the early secretory pathway requires two-site interaction with SNX5 and p115” (The EMBO Journal, 2024)
